According to article PMC8473191:

Experiments:
[1] = target: mMH3_02TE, H3 hemagglutinin ectodomain (A/Hong Kong/45/2019) with cleavable foldon and histidine tag (influenza A virus A/Hong Kong/45/2019 (H3) | not stated); test: SEC-MALS
[2] = target: mMH1_02TE, H1 hemagglutinin ectodomain (A/Hawaii/70/2019) with cleavable foldon and histidine tag (influenza A virus A/Hawaii/70/2019 (H1) | not stated); test: SEC-MALS

mMH3_02TE, H3 hemagglutinin ectodomain (A/Hong Kong/45/2019) with cleavable foldon and histidine tag (domain or fragment)
stoichiometry N [1]: 3

mMH1_02TE, H1 hemagglutinin ectodomain (A/Hawaii/70/2019) with cleavable foldon and histidine tag (domain or fragment)
stoichiometry N [2]: 3
